Assay [1] addresses T1, HOIP-PUB domain (UniProt Q96EP0 71-142).
T1 construct: PUB domain of HOIP, as used for ITC; also called PUB domain of HOIP
T1 sequence (looked up): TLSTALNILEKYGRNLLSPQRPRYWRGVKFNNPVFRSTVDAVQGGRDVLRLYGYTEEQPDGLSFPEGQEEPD
Kind of assay: ITC; 293 K, ITC-200; 25 mM HEPES pH 7.5, 150 mM NaCl, 0.5 mM TCEP; 20 injections of 2 ul HOIP-PUB domain into peptide or domain in the cell; 1:1 binding model. The following applies: both partners purified. (In general: ITC needs no label: the signal is the heat of the interaction.)

Assay [2] deals with T2, HOIP-PUB domain (UniProt Q96EP0 71-142).
T2 chain: T1 sequence (looked up)
Kind of assay: ITC.

The target in assay [3] is T3, HOIP-PUB domain (Homo sapiens, UniProt Q96EP0).
T3 sequence (Q96EP0 71-142 limits assumed): T1 sequence (looked up)
The assay can be described thus: ITC of HOIP-PUB domain titrated into peptide or protein. The format is binding. The following applies: 398 μM HOIP-PUB domain titrated into CYLD-USP domain at 40 μM; 293 K; 25 mM HEPES (pH 7.5), 150 mM NaCl, 0.5 mM TCEP. Here is the method:
(B) ITC characterization of the interactions between (A) the HOIP-PUB domain (597 μM) and a peptide derived from the PIM motif (58 μM) of OTULIN and (B) the HOIP-PUB domain (398 μM) and the CYLD-USP domain (40 μM). For each titration, the raw data and normalized integrated heats are reported. (C) HEK293 cells were transfected with different combinations of CYLD, SPATA2, and OTULIN together with FLAG-HOIP. Protein complexes were subsequently purified using anti-FLAG beads and analyzed by western blotting. (D) SPATA2 expression was suppressed in FLAG-HOIP transfected HEK293 cells using siRNA. FLAG-HOIP was subsequently immunoprecipitated and tested for associated proteins by western blot analysis. (E) A549 cells were transfected with control or SPATA2 siRNA. After 72 hr, cells were subjected to TNFR1-SC purification and analyzed by western blotting. […] They name protein/peptide pairs, not small molecules. / Panel B, Kd: the lowered letter after K is small; read as d.
Samples were subsequently analyzed by western blotting. (B) HOIP-deficient A549 cells were reconstituted with HOIP-WT or HOIP-N102A. […] Samples were analyzed by western blotting. […] Following anti-GFP IP, SPATA association with HOIP and CYLD was evaluated by western blot analysis. […] Bound GST-containing protein was subsequently detected by HRP immunofluorescence, and the signal of both membranes was overlaid. […]

These results are taken from paper PMC5009064 (Cell Reports, 2016).

B1: peptide derived from the C-terminal region of SPATA2 (peptide)
peptide: RGTYFSTQDDVDLYTDSEPR
notes: SPATA2 PIM peptide; also called SPATA2 peptide; PIM of SPATA2
By Kd is commonly meant the constant that tells how readily two partners part at equilibrium. Low readings indicate higher affinity, high ones lower affinity. Consider B1, for which binding in the assay with HOIP-PUB domain [1] was characterised by a dissociation constant (Kd) of 900 nM.

Turning to AEHEEDMYRA [peptide derived from the PIM motif of OTULIN], in the assay with HOIP-PUB domain [2], binding was characterised by a dissociation constant (Kd) of 3200 nM.

B2: CYLD-USP: USP domain of CYLD, protein domain titrated by ITC (protein)
chain: KGIQGHYNSCYLDSTLFCLFAFSSVLDTVLLRPKEKNDVEYYSETQELLRTEIVNPLRIYGYVCATKIMKLRKILEKVEAASGFTSEEKDPEEFLNILFHHILRVEPLLKIRSAGQKVQDCYFYQIFMEKNEKVGVPTIQQLLEWSFINSNLKFAEAPSCLIIQMPRFGKDFKLFKKIFPSLELNITDLLEDTPRQCRICGGLAMYECRECYDDPDISAGKIKQFCKTCNTQVHLHPKRLNHKYNPVSLPKDLPDWDWRHGCIPCQNMELFAVLCIETSHYVAFVKYGKDDSAWLFFDSMADRDGGQNGFNIPQVTPCPEVGEYLKMSLEDLHSLDSRRIQGCARRLLCDAYMCMYQSP
For the molecule B2, the “direct interaction by ITC” value with HOIP-PUB domain [3] is recorded as “could not detect a direct interaction”.
